Assay [1] deals with CD3 on human CD8+ T cells. Kind of assay: flow cytometry titration on CD8+ T cells, MFI against [IgG] nM. Background: Flow cytometry measures light scatter and fluorescence of single cells or particles in a stream.
Assay [2] addresses CD3 on Jurkat cells. Kind of assay: flow cytometry titration on Jurkat cells, MFI against [IgG] nM.
In assay [3] the target is CD3 on human CD8+ T cells. Kind of assay: flow cytometry titration, RL1-H MFI against [IgG] nM; cells not named on this panel, the points are those of the CD8+ T-Cell curves of FIGS. 12E-12G.
For assay [4], the target named is CD3 on human CD8+ T cells. As to the kind of experiment: flow cytometry titration, MFI against [IgG] nM; cells not named on this panel, the value and the curve are those of the CD8+ T-Cell curve of FIG. 12F.
Assay [5] addresses cyno CD3 epsilon (cyno (cynomolgus monkey)) (UniProt Q95LI5). As to the kind of experiment: sensorgrams with fits, Response (RLU) against Time (s); instrument not named; species not printed on the panel: cyno by the order of the panels (11I-11K human, 11L-11N cyno, after the text's 67 nM and 107 nM).
The target in assay [6] is T1, human CD3 epsilon (human, UniProt P07766 23-126, limits assumed).
T1 construct: Used as a soluble protein target in panning; the construct is not described; also called hCD3; hCD3 epsilon
T1 sequence (P07766 23-126 limits assumed): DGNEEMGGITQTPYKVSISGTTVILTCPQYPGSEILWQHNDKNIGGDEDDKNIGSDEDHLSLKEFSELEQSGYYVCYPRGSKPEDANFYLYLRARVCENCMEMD
Kind of assay: sensorgrams with fits, Response (RLU) against Time (s); instrument not named; species not printed on the panel: human by the order of the panels (11I-11K human, 11L-11N cyno, after the text's 67 nM and 107 nM).

For assay [7], the target named is T2, cyno CD3 epsilon (cyno (cynomolgus monkey), UniProt Q95LI5 22-117, limits assumed).
T2 construct: Used as a soluble protein target in panning; the construct is not described; also called cCD3; cCD3 epsilon
T2 sequence (looked up): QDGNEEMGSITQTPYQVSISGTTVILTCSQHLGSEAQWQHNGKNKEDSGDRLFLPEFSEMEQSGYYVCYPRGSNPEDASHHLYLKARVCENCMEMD
Kind of assay: flow cytometry on Expi293 cells overexpressing cynoCD3e, antibody at 100 nM; bar = MFI ratio (OE/parent).

The target in assay [8] is T1, human CD3 epsilon. Kind of assay: flow cytometry on Expi293 cells overexpressing hCD3e, antibody at 100 nM; bar = MFI ratio (OE/parent), 1 = parent cells.
For assay [9], the target named is T2, cyno CD3 epsilon. As to the kind of experiment: sensorgrams with fits, Response (RLU) against Time (s); instrument not named; panel shaded grey; species not printed on the panel: cyno by the order of the panels (11I-11K human, 11L-11N cyno, after the text's 67 nM and 107 nM).
Assay [10] addresses T1, human CD3 epsilon. As to the kind of experiment: method not stated; human CD3 epsilon.

Changes are numbered by the printed parent chain.

CD3 on human CD8+ T cells, sequence (chain, as listed by the source limits assumed): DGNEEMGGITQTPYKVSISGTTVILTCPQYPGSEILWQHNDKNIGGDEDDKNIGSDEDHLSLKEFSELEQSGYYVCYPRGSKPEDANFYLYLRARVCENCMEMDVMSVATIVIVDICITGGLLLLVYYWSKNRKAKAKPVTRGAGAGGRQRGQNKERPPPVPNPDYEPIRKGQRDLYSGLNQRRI

For R&D MAB100 (antibody), the EC50 (in general, the concentration giving half of the maximal effect) in [1] turned out to be 3.05 nM; in assay [2] it was 0.537 nM; in assay [4], 3.05 nM. The EC50 (read off the curve) (in general, the concentration giving half of the maximal effect) in assay [3] was found to be 3 nM.
For the molecule muSP34 (antibody), the figures for the Kd in [5] and in [6] were 38 nM and less than 0.0019 nM, respectively.

B1: CD3-252-5 (VHH)
VHH: EVQLVESGGGLVQPGGSLRLSCAASGRISNINIMGWFRQAPGKEREFVAAISWNSGTTRYADSVKGRFTISADNSKNTAYLQMNSLKPEDTAVYYCASQGPGLYGSGSYLRYWGQGTLVTVSS
notes: also called CD3-252-005
Turning to B1, the binding result is reported as “no binding (tested: 100 nM)” in assay [7] and “binds” in assay [8].

B2: CD3-56-11 (antibody, V domains shown)
VH: EVQLLESGGGLVQPGGSLRLSCAASGFRFSTYAMNWVRQAPGKGLEWVSGISGSGGSKYHADSVKGRFTISRDNSKNTLYLQMNSLRAEDTAVYYCARDSLTTRGYYYYMDVWGQGTLVTVSS
VL: DIQMTQSQSSLSASVGDRVTITCRASQSIRTSLNWYQQKPGKAPKLLIYAASRLQSGVPSRFSGSGSGTDFTLTISSLQPEDFATYYCQQSYSTLYSFGGGTKVEIK
Regarding B2, the dissociation constant Kd (as a rule, the free concentration of one partner at which half of the binding sites on the other are occupied at equilibrium, for simple one-to-one binding) amounted to 130 nM in [6] and 162 µM in assay [9].

B3: CD3-56-05 (antibody, V domains shown)
VH: EVQLLESGGGLVQPGGSLRLSCAASGFTFSSYAMNWVRQAPGKGLEWVSAVSGSGGRTYYADSVKGRFTISRDNSKNTLYLQMNSLRAEDTAVYYCARERATTLDYWGQGTLVTVSS
VL: B2 VL with Q8P, S28T, R30Y, T31S, S32H, A50V, Y92F, L95S, Y96W, S97T
notes: the text speaks of CD3 epsilon IgGs from a Fab library on the DP47 framework; also called CD3-56-5; CD-3-56-5
In assay [10], B3 returned a dissociation constant (Kd) of 67 nM.

B4: CD3-252-29 (VHH)
VHH: EVQLVESGGGLVQPGGSLRLSCAASGTTFRINVMGWFRQAPGKEREFVAAITSSGSSTLYADSVKGRFTISADNSKNTAYLQMNSLKPEDTAVYYCARGGGYHRLWGQGTLVTVSS
notes: also called CD3-252-029
On to B4, for which the binding result in assay [7] was “no binding (tested: 100 nM)”; in assay [8] it was “binds”.

B5: CD3-252-24 (VHH)
VHH: EVQLVESGGGLVQPGGSLRLSCAASGITFKRYVMGWFRQAPGKEREFVAAITNGGSTKYADSVKGRFTISADNSKNTAYLQMNSLKPEDTAVYYCARDLSAGPGKAVYWGQGTLVTVSS
notes: also called CD3-252-024
Consider B5, for which the binding result in assay [7] is given as “no binding (tested: 100 nM)”; in [8], “binds”.

B6: CD3-252-10 (VHH)
VHH: EVQLVESGGGLVQPGGSLRLSCAASGRSLYDRAYVMGWFRQAPGKEREFVAAINRSGSALYADSVKGRFTISADNSKNTAYLQMNSLKPEDTAVYYCAAKAVTSRDHEWGQGTLVTVSS
notes: also called CD3-252-010
As for B6, the results for the binding result in assay [7] and in assay [8] were “no binding (tested: 100 nM)” and “binds”, respectively.

B7: CD3-252-22 (VHH)
VHH: EVQLVESGGGLVQPGGSLRLSCAASGNIFTRHIMGWFRQAPGKEREFVAAITNGGSTKYADSVKGRFTISADNSKNTAYLQMNSLKPEDTAVYYCARQDYYDSSGHIRYWGQGTLVTVSS
notes: also called CD3-252-022
As to B7, the binding result in [8] is on record as “binds”.
